Tests used:
[1] = system: Cur (Bacteroides thetaiotaomicron VPI-5482); assay: EMSA
Glk (BT2493) = biological target: T1, Glk (BT2493) (Bacteroides thetaiotaomicron, UniProt Q8A4V4); assay: glucokinase activity in vitro, coupled NADH oxidation, […] nm; assay type: biochemical; conditions: 50 mM Tris pH 7.4, 3 mM MgCl2, 10 mM NH4Cl; data only in supplement
T1 sequence (Q8A4V4 1-326): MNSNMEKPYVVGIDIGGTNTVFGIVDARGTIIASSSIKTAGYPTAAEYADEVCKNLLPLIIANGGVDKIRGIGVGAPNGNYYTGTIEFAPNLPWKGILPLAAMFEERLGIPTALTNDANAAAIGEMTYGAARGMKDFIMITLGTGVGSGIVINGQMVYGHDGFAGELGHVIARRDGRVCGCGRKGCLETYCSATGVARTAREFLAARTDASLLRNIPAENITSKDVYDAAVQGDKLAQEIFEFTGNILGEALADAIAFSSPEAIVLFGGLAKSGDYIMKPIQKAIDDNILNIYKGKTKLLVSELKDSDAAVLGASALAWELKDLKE

Molecule | Kd [1] | glucokinase activity in vitro, coupled NADH oxidation, 340 nm (Glk (BT2493))
fusA2 promoter probe (wild-type) | 4.97 pmol | –
OC[C@H]1OC(O)[C@H](O)[C@@H](O)[C@@H]1O (some centres unmarked) [glucose] | – | We determined that Glk exhibits glucokinase activity in vitro (Supplementary Fig. 4a)

From paper PMC12078602 (Nature Communications, 2025)
